According to patent publication US7205387B2, “Recombinant polypeptide useful for neurotrophin receptor mediated gene delivery and as neurotrophin agonist” (Agency for Science, Technology and Research, priority 2003, dated 2007):
Bridge positions count the residues as written; N and C are the ends. Ends that are not written are not given here.

What was measured:
primary cortical neurons = experiment: Gene delivery to primary cultures of cortical neurons; type: cell-based, rat
Description: Primary cultures of neurons were established from the cortices of embryonic Wistar rats at gestational day 20. Cortices freed of meninges were dissected and individual cells were dispersed mechanically by trituration of minced tissue in 3 ml DMEM medium supplemented with 2% FBS. The suspension was allowed to settle in a centrifuge tube. The cells in the supernatant were collected by centrifugation and resuspended gently in DMEM with 10% FBS. Viability of the cells was assessed prior to plating using trypan blue. Cells were plated onto microplates pre-coated with poly-L-lysine/laminin at a density of 7.5×10^5 viable cells/cm^2. After a two-hour incubation period to allow neurons to attach, the medium and unattached cells were removed and replaced by serum-free DMEM/F12 medium with 1% N2 supplement (Invitrogen, Carlsbad, Calif., USA). The cell were then incubated at 37° C. in 5% CO2 in a humidified incubator. After 2–5 days of culture, the neuron cells were used for transfection experiments. Gene delivery complexes were also tested on primary cultures of cortical neurons and glial cells in a similar fashion. […] Four hours later, an equal volume of DMEM-F12/N2 was added. One to two days after transfection, the cell culture medium was removed and the cells were rinsed in phosphate-buffered saline (PBS). Enough Reporter Lysis Buffer (Promega, Wisconsin, Md., USA) to cover the bottom surface was added to each well (50 μl/well for 48-well plates). After one freeze-thaw cycle, the lysates were tested for luciferase activity using the Luciferase Assay System (Promega) and a single-tube luminometer (Berthold Lumat L B 9507, Bad Wildbad, Germany). The total protein concentration of each lysate was determined using the DC Protein assay (Bio-Rad, Hercules, Calif., USA). The results were expressed in relative light units (RLU) per milligram of total protein.

[1] = tested on: lumbar segment of the spinal cord; experiment: Gene delivery in vivo, intrathecal injection, lumbar spinal cord; set-up: species or system rat; conditions: 3 μg pCAGluc, PEI600 N/P 5, peptide N/P 5, intralumbar, 3 days
From the text: In vivo gene delivery was studied by intrathecal injections of adult Wistar rats (8 weeks old, 180–200 g). The rats were anesthetized by intraperitoneal injection of sodium pentobarbital. After the skin around L4–L5 was exposed, the gene delivery complex was slowly injected into the subarachnoid space using a syringe. A slight tail movement accompanied correct placement of the needle. After injection, the syringe was left in place for five minutes to limit diffusion caused by backflow pressure. Multiple injections were sometimes required to deliver the full volume of the complex. After injection, the skin was closed with surgical clips and the animals were kept warm until they recovered. […] The lumbar segment of the spinal cord and the lumbar dorsal root ganglia were excised. The tissues were homogenized in 100–400 μl of Reporter Lysis Buffer (Promega) depending on size and subjected to three freeze-thaw cycles. The lysates were centrifuged at 14000 g for 5 min at 4° C. The supernatant was tested for luciferase activity using the Luciferase Assay System (Promega) in a single-tube luminometer (Berthold Lumat LB 9507). The readings were normalized by the total protein content of the lysates, as measured by the DC Protein assay (Bio-Rad).

TrkA = molecular target: T1, TrkA (Rattus norvegicus, UniProt P35739); experiment: Phospho-TrkA immunoblot in PC12 cells; type: cell-based
T1 construct: endogenous in cells; host or cells: PC12 (rat pheochromocytoma, ATCC)
Description: (§1) Immunoblotting experiments were conducted to test whether the chimeric polypeptides could, like NGF, induce autophosphorylation of TrkA and activation of its signal transduction pathways. PC12 cells were seeded in 6-well plates at a density of 2×10^6 cells/well and cultured in RPMI 1640 containing 0.5% FBS and 0.25% horse serum for 2 days. The low serum concentrations were necessary to reduce the basal levels of phosphorylation. The medium was refreshed two hours before beginning treatment. The cells were incubated with the polypeptides or NGF in serum-free medium for 15–20 min. The cells were then washed in PBS, lysed, and sonicated. The cell lysates were resolved by SDS-PAGE and transferred to a nitrocellulose membrane for immunoblotting. The primary antibodies used include Phospho-TrkA (Tyr490) antibody, Phospho-p44/p42 MAPK (Thr202/Tyr204) monoclonal antibody, and Phospho-Akt (Ser473) monoclonal antibody, all obtained from Cell Signaling Technology (Beverly, Mass., USA). Colorimetric detection was performed by standard techniques after using horse-radish peroxidase-conjugated secondary antibodies. In some experiments, TrkA tyrosine kinase inhibitors K-252a or AG879 (both from Calbiochem, La Jolla, Calif., USA) were used. In these cases, PC12 cells were incubated with 100 nM K-252a or 10 μM AG879 before addition of polypeptides or NGF.

Akt = experiment: Phospho-Akt immunoblot in PC12 cells; type: cell-based, rat; conditions: 5 μM peptide, 20 min
Description: as §1

plasmid DNA [2] = experiment: Ethidium bromide displacement assay; type: binding; conditions: 0.8 μg DNA pre-mixed with ethidium bromide
Description: In this assay, the quenching of the fluorescence of ethidium bromide intercalated in DNA is used to measure DNA-binding and condensing ability. Ethidium bromide (153 μl of a 0.01% solution) was added to 96 μg of plasmid DNA and diluted with water to a final volume of 6 ml. In wells of a 96-well microplate, various amounts of polypeptide were placed in a volume of 50 μl, to which 50 μl of the DNA-ethidium bromide solution was added. After five minutes of mixing, 100 μl of water was added. The fluorescence reading was taken using wavelengths of 485 nm for excitation and 593 nm for emission on a SPECTRAFluor Plus microplate reader (TECAN, Maennedorf, Switzerland).

plasmid DNA [3] = experiment: Atomic force microscopy of polypeptide-DNA complexes; type: physicochemical
Description: DNA samples, polypeptide-DNA complexes, and polypeptide-polycation-DNA complexes were prepared with a DNA concentration of 0.02 mg/ml. The samples were diluted ten-fold in HPLC-grade water, and 20 μl of each sample was deposited onto mica discs. After one minute, the mica discs were washed with HPLC-grade water and dried in a stream of filtered air. Images were acquired on a Nanoscope IIIa atomic force microscope (Digital Instruments, Santa Barbara, Calif., USA) operating in tapping mode in air, using Nanoprobe Silicon tips (Digital Instruments).

PC12 cells [4] = experiment: PC12 cell survival assay (MTT, serum-free medium); type: cell-based, rat; conditions: 8 μM, deprived of serum and NGF for 3 days
Description: Undifferentiated or differentiated (by 6-day treatment with 10 ng/ml NGF) PC12 cells seeded onto collagen-coated 96-well plates were exposed to serum-free RPMI-1640 medium containing either NGF or various concentrations of chimeric polypeptides. After 3–4 days of incubation, cell viability was measured by the standard MTT assay. Cell survival was expressed as a percentage of the viability of the NGF-treated control.

PC12 cells [5] = experiment: PC12 neurite outgrowth assay; type: cell-based, rat; conditions: 8 μM, 3 days
Description: Chimeric polypeptides were examined for their ability to induce neurite outgrowth in PC12 cells. Polypeptides in a range of concentrations were added to PC12 cells cultured in serum-enriched RPMI-1640 medium. The cells were incubated for three days and photographed every 24 h.

T1 sequence (P35739 33-799): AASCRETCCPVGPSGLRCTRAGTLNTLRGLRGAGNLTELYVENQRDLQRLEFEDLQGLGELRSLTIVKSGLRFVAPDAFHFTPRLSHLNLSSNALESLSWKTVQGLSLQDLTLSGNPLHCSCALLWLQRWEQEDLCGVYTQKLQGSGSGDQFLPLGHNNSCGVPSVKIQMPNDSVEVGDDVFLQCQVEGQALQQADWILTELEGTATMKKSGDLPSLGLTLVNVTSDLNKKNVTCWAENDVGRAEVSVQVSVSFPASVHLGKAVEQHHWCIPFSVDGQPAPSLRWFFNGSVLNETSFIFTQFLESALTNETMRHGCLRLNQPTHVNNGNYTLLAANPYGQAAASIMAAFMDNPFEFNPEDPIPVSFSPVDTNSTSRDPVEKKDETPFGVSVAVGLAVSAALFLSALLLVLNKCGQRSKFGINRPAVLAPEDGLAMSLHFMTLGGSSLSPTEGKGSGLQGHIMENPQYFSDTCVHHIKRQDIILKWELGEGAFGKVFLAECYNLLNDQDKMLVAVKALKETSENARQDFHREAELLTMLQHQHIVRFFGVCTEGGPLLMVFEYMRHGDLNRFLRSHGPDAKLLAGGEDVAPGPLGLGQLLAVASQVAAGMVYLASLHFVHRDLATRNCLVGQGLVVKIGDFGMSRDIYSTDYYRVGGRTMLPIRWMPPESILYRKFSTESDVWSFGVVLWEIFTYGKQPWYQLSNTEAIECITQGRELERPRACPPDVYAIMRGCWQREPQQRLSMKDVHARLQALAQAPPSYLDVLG

Molecule	gene transfer efficiency relative to the non-targeted control (10K) (primary cortical neurons; peptide/DNA 0.75 nmol/μg (N/P ratio of 2.5), chloroquine) [fold]	transfection in spinal cord near the lumbar injection site relative to 10K control [1]	activation (phosphorylation) of TrkA (TrkA; 5 μM peptide, 20 min)	activity when complexed with DNA (TrkA; NL4-10K/DNA complexes (N/P ratio of 5))	activation (phosphorylation) of Akt (Akt)	N/P ratio at which ethidium bromide fluorescence dropped sharply (DNA condensation) (plasmid DNA [2])	DNA condensation seen by atomic force microscopy, with PEI600 (plasmid DNA [3]; PEI600 (N/P ratio of 5) added)	DNA condensation seen by atomic force microscopy, peptide alone (plasmid DNA [3]; peptide and plasmid DNA without polycation)	effectiveness of triple complexes relative to (SPKR)4 triple complexes (primary cortical neurons; 0.25 μg/well pCAGluc, PEI600, 24 h)	activation of TrkA (phospho-TrkA Western blot) (TrkA; 8 μM, 20 min)	PC12 viability as % of maximum NGF-promoted survival rate (PC12 cells [4]) [%]	neurite outgrowth (PC12 cells [5])
CTTTHTFVKALTMDGKQAAWRFIRIDTACKKKKKKKKKK (CTTTHTFVKALTMDGKQAAWRFIRIDTACKKKKKKKKKK; disulfide 1-29) [NL4-10K]	22	decreased relative to the 10K control	induced activation	retained its activity	induced activation							
SPKR4NL1-2: chimeric protein: (SPKR)4 DNA-binding domain, α-helical linker, targeting domain with loops 1 and 2 of NGF (aa 17–67), His10 tag (protein, SPKR4NL1-2) MGHHHHHHHHHHSSGHIEGRHMSPKRSPKRSPKRSPKRGGTYLSEDELKAAEAAFKRHNPTGSCSVSVWVGDKTTATDIKGKEVMVLGEVNINNSVFKQYFFETKCRDPNPVDSG						about 10 N/P ratio	compact nanoparticles are formed	only partially condenses plasmid DNA	nine times	activates TrkA	80	promotes neurite outgrowth
